The results in this text go back to patent US20100075434A1 (NATIONAL UNIVERSITY CORPORATION TOKYO MEDICAL AND DENTAL …, published 2010).

Positions count from the first letter of the chain named. Square brackets hold non-standard residues; d marks the D form. * marks the point of attachment. NBD = O=[N+]([O-])c1ccc(*)c2nonc12; Dap = NC[C@H](N)C(=O)O; ClAc = O=C(CCl)*

For orientation: Kd means the concentration at which binding is half-saturated. A lower Kd goes with a tighter complex.

Assay [1] has as its target T1, tag polypeptide of Example 2, structural formula (10).
T1 construct: also called L2
T1 peptide: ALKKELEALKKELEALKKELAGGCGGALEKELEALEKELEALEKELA
The assay can be described thus: fluorescence titration, tag added to 0.5 µM probe in HEPES buffer, 505 nm, 1:1 model. As to the method:
(§1) In the fluorescence titration, the rate of change of the fluorescence intensity at 505 nm was plotted against the concentration of the tag peptide and the dissociation constant was calculated from a theoretical formula assuming 1 to 1 binding of the tag peptide to the probe peptide.
(§2) In FIG. 6, the horizontal axis represents the titer of the tag against the probe whereas the vertical axis represents the relative increase in fluorescence intensity when the fluorescence intensity detected for the probe alone at fluorescence wavelength of 505 nm is estimated as 1. […] In Example 1, the fluorescence intensity at 505 nm in the presence of 1 equivalent of tag peptide was 18 times as high as that measured in the absence of the tag peptide.

The target of assay [2] is T2, tag polypeptide of Example 1, structural formula (8) (not fully specified).
T2 construct: Chemically synthesized from two fragments (Chain A with the linker cysteine, Chain B) joined by native chemical ligation; also called A2
T2 peptide: T1 peptide with L9A, L39A
The assay is described as above. As to the method:
as §1, §2

In assay [3] the target is T3, tag polypeptide of Example 3, structural formula (11) (not fully specified).
T3 construct: also called G2
T3 peptide: T1 peptide with L9G, L39G
The description is as above. As to the method:
as §1, §2

Assay [4] deals with T1, tag polypeptide of Example 2, …. Description: fluorescence titration, 0.5 µM probe in HEPES buffer. As to the method: as §1, §2
Assay [5] addresses T2, tag polypeptide of Example 1, …. The assay is described as above. As to the method:
as §1, §2

For assay [6], the target named is T3, tag polypeptide of Example 3, …. The assay is described as above. As to the method:
as §1, §2

The target in assay [7] is T4, fused protein of DsRed and PKC having at its N terminal end a tag polypeptide of sequence (A) (Homo sapiens (Human), UniProt Q05655 1-676).
T4 construct: Expressed in the cytoplasm of CHO.K1 cells, which were permeabilized with saponin before the probe was added; also called tag-fused PKC
T4 sequence (Q05655 other isoform, or with tags, fused parts or gaps limits assumed): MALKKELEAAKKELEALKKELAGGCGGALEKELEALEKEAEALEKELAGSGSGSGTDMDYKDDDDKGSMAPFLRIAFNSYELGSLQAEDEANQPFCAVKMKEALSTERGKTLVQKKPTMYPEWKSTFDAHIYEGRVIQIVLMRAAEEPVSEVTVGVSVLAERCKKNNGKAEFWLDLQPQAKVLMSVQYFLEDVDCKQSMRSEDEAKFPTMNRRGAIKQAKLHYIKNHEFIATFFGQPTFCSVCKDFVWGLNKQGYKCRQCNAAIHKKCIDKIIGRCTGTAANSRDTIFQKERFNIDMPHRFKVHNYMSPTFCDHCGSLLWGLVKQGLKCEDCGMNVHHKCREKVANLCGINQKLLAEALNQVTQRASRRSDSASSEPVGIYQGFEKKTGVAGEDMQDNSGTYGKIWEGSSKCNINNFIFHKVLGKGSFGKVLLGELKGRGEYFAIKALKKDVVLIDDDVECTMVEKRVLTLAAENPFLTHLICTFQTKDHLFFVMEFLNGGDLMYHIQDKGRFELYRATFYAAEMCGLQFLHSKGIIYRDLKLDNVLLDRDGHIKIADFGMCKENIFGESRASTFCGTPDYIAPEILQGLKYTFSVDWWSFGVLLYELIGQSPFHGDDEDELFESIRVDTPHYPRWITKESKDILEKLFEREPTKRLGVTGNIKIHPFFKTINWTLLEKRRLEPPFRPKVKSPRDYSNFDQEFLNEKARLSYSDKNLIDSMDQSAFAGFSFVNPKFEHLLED
Description: fluorescence microscopy of permeabilized CHO.K1 cells, 1 µM probe, NBD against DsRed localization with and without PDBu. As to the method:
Subsequently, a permeabilization buffer (20 mM Hepes, pH 7.4, 140 mM KCl, 50 μg/mL saponin, 5 mM oxalic acid) was added to the thus-prepared CHO.K1 cells. After left to stand on ice for 10 min, the cells were washed with PBS, followed by incubating on ice for 20 min in PBS. Thereafter, the cells were incubated in PBS at room temperature for 2 min and then 37° C. for 2 min. Further, the cells were incubated at 37° C. for 30 min in a conditioned medium (Ham's F12) to which a probe indicated by sequence (B) (probe concentration: 1 μM (Final conc.)) had been added.
Separately, before treated with the permeabilization buffer, the above-prepared CHO.K1 cells were treated for 10 min with 10 mM DMSO containing PDBu (phorbol 12,13 dibutyrate; final concentration: 10 μM). The cells were observed by the fluorescence microscope similar to the above.
The following was used as a control; a group which was not treated with PDBu, and CHO.K1 cells to which only DIC was introduced (note that DIC is a vector used for introducing into cells the above-mentioned fused protein of DsRed and PKC having at its N terminal end a tag polypeptide indicated by sequence (A). The cells were observed as mentioned above at predetermined wavelength (515 nm to 560 nm). The results are shown in FIG. 11.

B1: probe polypeptide of Example 1, structural formula (9) (peptide)
peptide: Ac-ALKKKLEALKKK[Dap](NBD)EALKKKLA-NH2
SMILES: CC(=O)N[C@@H](C)C(=O)N[C@@H](CC(C)C)C(=O)N[C@@H](CCCCN)C(=O)N[C@@H](CCCCN)C(=O)N[C@@H](CCCCN)C(=O)N[C@@H](CC(C)C)C(=O)N[C@@H](CCC(=O)O)C(=O)N[C@@H](C)C(=O)N[C@@H](CC(C)C)C(=O)N[C@@H](CCCCN)C(=O)N[C@@H](CCCCN)C(=O)N[C@@H](CCCCN)C(=O)N[C@@H](CNc1ccc([N+](=O)[O-])c2nonc12)C(=O)N[C@@H](CCC(=O)O)C(=O)N[C@@H](C)C(=O)N[C@@H](CC(C)C)C(=O)N[C@@H](CCCCN)C(=O)N[C@@H](CCCCN)C(=O)N[C@@H](CCCCN)C(=O)N[C@@H](CC(C)C)C(=O)N[C@@H](C)C(N)=O
notes: the text says (9); also called L-NBD; probe peptide
For B1, the figures for the Kd in assay [1], in assay [2] and in assay [3] were 0.0243 µM, 0.0175 µM and 0.755 µM, respectively. Also, the “equivalents of tag peptide at which the change in fluorescence saturates” value in assay [4], in assay [5] and in assay [6] was 1 equivalent throughout. Moreover, the “fold increase of fluorescence intensity at 505 nm with 1 equivalent of tag peptide against probe alone” value in assay [5] was 18 times.

With ClAc-GALKKKLEALKKK[Dap](NBD)EALKKKLA-NH2 (also called ClAc-G probe) [probe peptide for crosslink reaction, structural formula (12)], in assay [7], the binding result is “binds”.
